Test: soluble on expression in E. coli; label from the status in PepcDB or PDB records

Sequence | soluble on expression in E. coli
MGSDKIHHHHHHMNTLEIAKEVFEKEAQAILDLATNLDENFNQAVNLMLNTKGRCIVSGMGKSGHIGAKIAATLASTGTPSFFIHPGEALHGDLGMLTSEDVLIAISNSGETEEILKIIPAIKKREIPLIVMCGKKNSTLVKQGDIFLNIAVEKEACPLQLAPMSSTTATLVMGDALAAALMKVRNFKPDDFALFHPGGSLGRKLLTKVKDLMVSSNLPIVHPDTEFNDLVDVMTSGKLGLCVVLENEKLVGIITDGDLRRALKASDKPRFDFKAKEIMSINPKVVDADAMASEAEGIMLKHKIKEIIVGKEEKVVGIIQLYAIGNV | not soluble
MGSDKIHHHHHHMNTNKRVLILTANYGNGHVQVAKTLYEQCVRLGFQHVTVSNLYQESNPIVSEVTQYLYLKSFSIGKQFYRLFYYGVDKIYNKRKFNIYFKMGNKRLGELVDEHQPDIIINTFPMIVVPEYRRRTGRVIPTFNVMTDFCLHKIWVHENVDKYYVATDYVKEKLLEIGTHPSNVKITGIPIRPQFEESMPVGPIYKKYNLSPNKKVLLIMAGAHGVLKNVKELCENLVKDDQVQVVVVCGKNTALKESLSALEAENGDKLKVLGYVERIDELFRITDCMITKPGGITLTEATAIGVPVILYKPVPGQEKENANFFEDRGAAIVVNRHEEILESVTSLLADEDTLHRMKKNIKDLHLANSSEVILEDILKESEMMTAKQKAKVLS | not soluble
MGSDKIHHHHHHMNTRNDNSKILEIYKMKLFGELVKAVWNDDIEDIENLPNKILNEDLKDNLNNYFSGKFDKDTMVNLIRVTMGLDVTEDTDKNLKESLHEAVNLDEVKRPIISVISDACKYCDENNKEDESCKIRSKHINCNEEDVCSACGDCVSRCKLGAISDKIEFIPMIKLLKDIKSPVYAIVAPAFVGQFGKDVSPGKLRTALKKIGFEDMIEVALAADMLTAKEAYDYYEHMKKDEEGCFITSCCCPIWVSLIQNSFPQILENVSPSVSPMIACGRAVKILNPDAKVVFIGPCMAKKKEAMLEDIKDAVDFVLTFKELQEIFDALELNPAIMDESNRVEASLSGRVYARTGGVSKAVKLSVRRIDKNIKFEEKAFEGTKECMDGLKKVLNKEIEATFIEGMGCVGGCVGGPKRILSVEEGTKNVDEYSESTNMETPFDNLNVLQFLTSLGIKRVESLGEKEEEKVKKIFSRDIKSNKKENKYKK | not soluble
MGSDKIHHHHHHMNVEKLKKMKGKEKIVMVTAYDAPSARIARDAGIDVILVGDSLGNNVLGYENTIPVTMEEMLIHVAAVKRGAPDAFIVADMPFLSYQTSVEKAVENAGKFLKVGANAVKIEGGEEFGELVQKLVESGIPVMGHIGLTPQFVNRFGGYRVQGKTEKNREYLLRSARELEKRGAFAIVLELVVEEVAKEITESVSIPTIGIGSGRFCDGQVLVWHDLLGLNPDFAPRFSKKYANLYEVILKALQEFRREVKKGLFPTEEHSFTDKSKGGVSS | not soluble
MGSDKIHHHHHHMNVENQSLSDIEIILSHRYDNGADYWTTPDKRLIKGSPFSTLDSVLYLLELGVNPDDTLLKECADLIFSTWREDGRFKLYPNGGIYPCHTANAANVLCHMGYASDIRMQKTFQHFLDTQYTDGGWRCNKFSFGRGPETEYSNPLPTLNILNAFRFSNYLNKESKLDKAVDFLLDHWTIKKPIGPCHYGIGTLFMQVEYPFRNYNLFLYVYVLSFYSRAKKDKRFLEALKILESKMIGNKIVVERVVPKLSKLSFCKKGESSEIATTHYYEILKNLDK | not soluble
MGSDKIHHHHHHMNYLKLKQDVQAGRVAPVYFMYGTELFLMEDLIQDILSVTLSDEERDMNVSSYSLTDVPIEAALEEAETVPFFGSKRVVILKDAALFTSQKLDVEHDVKRLEQYILNPVPETVLLIMAPYEKLDERKKITKLIKKESLVLEAKPLDEGEAKAWLSSLASELQVEMDEKAIETLLGMTGLRLTQLASEMNKLALYVGEGGIIRSEDVTLLVAKTLDQNIFDLIDFAINQRTHQALSLYHELLKQKEEPLKLLALLTRQFRIMYQVKELGRRGYTPNQMAKPLKIHPYVAKLAGKKAASMSDQLLYSLIEKAADTEFAIKSGKVDKVLALELFLLTMGSRESVG | not soluble
MGSDKIHHHHHHMPAFIKKELIMKLQGAGLGYRRNLAEDFLQLPSNNAIQFIEVAPENWSKMGGMARYQFDQAAERFPLAVHGLSLSLGGQAPLDRELLRNTKALINQYNSSFFSEHLSYCECEGHLYDLLPMPFTEEAVKHVAQRIRDVQDFLGLQISLENTSYYLHSPTSTMNEVEFLNAIAQEADCGIHLDVNNIYVNGVNHGLLDPYIFLDQVDVKRVNYIHIAGHDEEHSAAQVVENSANESFNKVKGAYRHLPELLIDTHGEAVKGTVWDLLEYAYQRLPTIPPTLLERDFNFPPFAELYAEVEHIAQLQQKYAHTEVMSYAA | not soluble
